From PMC4203341 (Developmental cell, 2014) come the findings set out here.

The test deals with T1, Trim58 PS domain (purified, for SEC-MALLS) (mouse, UniProt Q5NCC9 1-485).
T1 sequence (looked up): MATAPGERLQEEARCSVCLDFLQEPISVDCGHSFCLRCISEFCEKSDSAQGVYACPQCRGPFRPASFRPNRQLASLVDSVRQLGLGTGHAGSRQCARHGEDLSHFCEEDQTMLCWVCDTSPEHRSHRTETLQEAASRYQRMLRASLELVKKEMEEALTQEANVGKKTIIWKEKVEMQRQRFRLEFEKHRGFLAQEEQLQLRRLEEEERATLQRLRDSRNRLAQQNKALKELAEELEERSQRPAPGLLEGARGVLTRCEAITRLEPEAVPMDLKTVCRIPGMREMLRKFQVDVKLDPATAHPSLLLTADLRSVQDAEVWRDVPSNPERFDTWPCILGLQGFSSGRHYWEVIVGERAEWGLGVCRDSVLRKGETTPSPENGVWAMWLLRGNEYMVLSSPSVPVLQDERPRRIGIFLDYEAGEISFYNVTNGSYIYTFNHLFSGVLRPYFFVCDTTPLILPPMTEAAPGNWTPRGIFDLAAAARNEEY
Put plainly: SEC-MALS. (In general: In gel filtration, larger molecules generally elute earlier.)

B1: GST-DIC (1–120) (domain or fragment)
chain: MSDKSDLKAELERKKQRLAQIREEKKRKEEERKKKETDQKKEAAVSVQEESDLEKKRREAEALLQSMGLTTDSPIVPPPMSPSSKSVSTPSEAGSQDSGDGAVGSRRGPIKLGMAKITQV
On to B1, for which the “stoichiometry N” value was 1.

Usually stoichiometry N stands for the number of molecules, sites or subunits per partner or assembly.
